Target: SARS-CoV-2 Spike RBD-His Recombinant Protein (SARS-CoV-2) (UniProt P0DTC2)
Experiment: monoclonal phage ELISA, SPIKE RBD coated 200 ng/well; helper phage control

Substance: M13KO7 auxiliary phage
- ELISA signal (OD450): 0.0434

From US20220089692A1
